Experimental data taken from publication PMC8543371 (Nature microbiology, 2021).

Target: recombinant SARS-CoV-2 S 6P protein (SARS-CoV-2, Wuhan-Hu-1 reference …, UniProt P0DTC2, stabilised)
Assay: ELISA

Binder | binding result
AZD8895 P99V (heavy chain) (antibody, V domains shown) VH: QMQLVQSGPEVKKPGTSVKVSCKASGFTFMSSAVQWVRQARGQRLEWIGWIVIGSGNTNYAQKFQERVTITRDMSTSTAYMELSSLRSEDTAVYYCAAVYCSSISCNDGFDIWGQGTMVTVSS VL: not shown | binds
AZD8895 D108N (heavy chain) (antibody, V domains shown) VH: QMQLVQSGPEVKKPGTSVKVSCKASGFTFMSSAVQWVRQARGQRLEWIGWIVIGSGNTNYAQKFQERVTITRDMSTSTAYMELSSLRSEDTAVYYCAAPYCSSISCNNGFDIWGQGTMVTVSS VL: not shown | binds
AZD8895 D108E (heavy chain) (antibody, V domains shown) VH: QMQLVQSGPEVKKPGTSVKVSCKASGFTFMSSAVQWVRQARGQRLEWIGWIVIGSGNTNYAQKFQERVTITRDMSTSTAYMELSSLRSEDTAVYYCAAPYCSSISCNEGFDIWGQGTMVTVSS VL: not shown | binds
AZD8895 P99N (heavy chain) (antibody, V domains shown) VH: QMQLVQSGPEVKKPGTSVKVSCKASGFTFMSSAVQWVRQARGQRLEWIGWIVIGSGNTNYAQKFQERVTITRDMSTSTAYMELSSLRSEDTAVYYCAANYCSSISCNDGFDIWGQGTMVTVSS VL: not shown | binds
AZD8895 D108A (heavy chain) (antibody, V domains shown) VH: QMQLVQSGPEVKKPGTSVKVSCKASGFTFMSSAVQWVRQARGQRLEWIGWIVIGSGNTNYAQKFQERVTITRDMSTSTAYMELSSLRSEDTAVYYCAAPYCSSISCNAGFDIWGQGTMVTVSS VL: not shown | binds
